Earlier results on 2 substances are cited in paper PMC4792251.

Series [1] addresses Mcl-1 (Homo sapiens) (UniProt Q07820).
Series [2] has the same target. This is another data set of the same source.
For series [3], the target named is BHRF1 (Epstein-Barr virus) (UniProt P03182).

Read-outs that look alike come from different tables or passages of the source.

Chain of Bid BH3 peptide (P55957 80-99): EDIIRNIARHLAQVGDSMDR
Chain of UniProt Q07820 (Q07820 whole entry): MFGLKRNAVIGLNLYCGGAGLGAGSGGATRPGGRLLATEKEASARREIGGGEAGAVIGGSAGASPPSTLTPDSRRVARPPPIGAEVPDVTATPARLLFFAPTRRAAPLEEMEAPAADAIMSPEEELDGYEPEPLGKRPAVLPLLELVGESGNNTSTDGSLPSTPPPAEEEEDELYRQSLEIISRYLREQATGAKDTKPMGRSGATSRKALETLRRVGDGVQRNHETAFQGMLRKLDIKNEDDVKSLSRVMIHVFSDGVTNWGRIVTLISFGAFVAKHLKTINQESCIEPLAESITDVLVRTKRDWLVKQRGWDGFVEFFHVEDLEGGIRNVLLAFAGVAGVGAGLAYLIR
Chain of UniProt P03182 (P03182 whole entry): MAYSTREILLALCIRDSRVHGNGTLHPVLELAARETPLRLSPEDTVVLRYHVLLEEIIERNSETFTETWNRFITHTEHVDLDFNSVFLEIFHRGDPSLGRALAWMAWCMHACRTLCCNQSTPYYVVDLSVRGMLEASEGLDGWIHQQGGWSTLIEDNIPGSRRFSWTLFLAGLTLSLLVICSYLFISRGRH
Chain of Noxa B BH3 peptide (Q9JM54 68-87): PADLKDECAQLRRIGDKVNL

By Kd is commonly meant a measure of binding affinity in units of concentration. For Noxa B BH3 peptide, the Kd with Mcl-1 (Homo sapiens) [1] is 28 nM.
As to Bid BH3 peptide, the values for the Kd (with Mcl-1 (Homo sapiens) [2]; in series [3]) were less than 10 nM and 99 nM, respectively.
